Test results reported in publication PMC11093223, “Cargo selective vesicle tethering: The structural basis for binding of specific cargo proteins by the Golgi tether component TBC1D23” (Science Advances, 2024).

Assays:
Conditions in all cases: both partners purified
[1] = target: T1, TBC1D23 C-terminal domain I675W (mouse, UniProt Q8K0F1 559-677, I675W); assay: ITC; peptide (0.8 to 5 mM) titrated into 100 μM TBC1D23 C-terminal domain, 20°C, 100 mM NaCl, 100 mM tris pH 7.4, 1 mM TCEP, Nano ITC
T1 construct: TBC1D23, mouse, UniProt Q8K0F1, C-terminal domain (limits as m7, in data S3); source: E. coli BL21 plyS, purified (glutathione-Sepharose, GST cleaved with thrombin, Superdex 200)

[2] = target: T2, TBC1D23 C-terminal domain (mouse, UniProt Q8K0F1 559-684); assay: as above
T2 construct: TBC1D23, mouse, UniProt Q8K0F1, C-terminal domain ending with VLDALES at residue 684; used for ITC and for the 3.3 Å crystals; also called the C-terminal domain; TBC1D23 full-length C-terminal domain; source: E. coli BL21 plyS, purified (glutathione-Sepharose, GST cleaved with thrombin, Superdex 200)

[3] = target: T3, TBC1D23 C-terminal domain K672A (mouse, UniProt Q8K0F1 559-677, K672A); assay: as above
T3 construct: TBC1D23, mouse, UniProt Q8K0F1, C-terminal domain (limits as m7, in data S3); source: E. coli BL21 plyS, purified (glutathione-Sepharose, GST cleaved with thrombin, Superdex 200)

[4] = target: T4, Mouse TBC1D23 (559-684), C-terminal domain (mouse, UniProt Q8K0F1 559-684); assay: ITC; peptide (0.8 to 5 mM) titrated into 100 uM TBC1D23 C-terminal domain, 20 injections of 2.4 ul; 20°C; 100 mM NaCl, 100 mM tris pH 7.4, 1 mM TCEP; mean of three runs
T4 construct: TBC1D23, mouse, UniProt Q8K0F1 (684 residues), C-terminal domain, residues 559-684; also called TBC1D23 C-terminal domain; TBC1D23 full length C-terminal domain; source: E. coli BL21 plyS, purified (glutathione-Sepharose, thrombin cleavage, Superdex 200 gel filtration)
T4 sequence (Q8K0F1 559-684): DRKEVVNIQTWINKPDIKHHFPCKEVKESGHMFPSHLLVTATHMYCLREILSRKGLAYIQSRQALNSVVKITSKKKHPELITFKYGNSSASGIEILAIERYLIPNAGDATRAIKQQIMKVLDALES

T2 sequence (Q8K0F1 559-684): as above
T3 sequence (Q8K0F1 559-677 K672A): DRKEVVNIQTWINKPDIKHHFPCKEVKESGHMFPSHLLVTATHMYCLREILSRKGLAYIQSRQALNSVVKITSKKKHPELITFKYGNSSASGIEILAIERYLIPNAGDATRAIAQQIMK
T1 sequence (Q8K0F1 559-677 I675W): as the sequence (Q8K0F1 559-677 K672A) above, with A114K, I117W counted along it

| Kd [2] [µM] | Kd [4] [µM] | Binder | other results |
| --- | --- | --- | --- |
| ~7 |  | DDNTLWHRGFTED (peptide, UniProt O14662 209-221, looked up, syntaxin-16, human, peptide 209 to 221 as m28; source: peptide) |  |
| ~15 |  | DDNTLFHRGFTED (peptide, UniProt O14662 209-221, looked up, syntaxin-16, human, peptide 209 to 221 as m28; source: peptide) |  |
|  | 5.6 | DDNTLWHRGFTED (syntaxin-16, human, residues 209-221 with Y214W) |  |
|  | 15.5 | DDNTLFHRGFTED (syntaxin-16, human, residues 209-221 with Y214F) |  |

Continued, binder first:

| Binder | Kd [2] [µM] | Kd [4] [µM] | other results |
| --- | --- | --- | --- |
| DDNTLYHRGFTED (peptide, UniProt O14662 209-221, looked up, syntaxin-16, human, residues 209 to 221, beginning 209DDNTLY (T212, L213, Y214, R216); also called syntaxin-16 peptide; wild type; source: peptide) [syntaxin-16 (209–221) peptide] | ~1.4 |  | Kd [1]: > 300 µM; stoichiometry N [2]: 1; Kd [3]: ~30 µM |
| DDNSLYHRGFTED (peptide, UniProt O14662 209-221, looked up, syntaxin-16, human, peptide 209 to 221 as m28; source: peptide) | ~30 |  |  |
| DDNTAYHRGFTED (syntaxin-16, human, residues 209-221 with L213A) [syntaxin-16 peptide L213A] |  | > 200 |  |
| DDNTFYHRGFTED (syntaxin-16, human, residues 209-221 with L213F) [syntaxin-16 peptide L213F] |  | 150 |  |
| DDNSLYHRGFTED (syntaxin-16, human, residues 209-221 with T212S) |  | 30.1 |  |
